According to patent publication US20090311253A1 (AbbVie / Abbott, published 2009):

Key:
Recombinant Human IL-13 [1] = biological target: T1, Recombinant Human IL-13 (human, UniProt P35225 35-146, limits assumed); assay: Biacore SPR
Recombinant Human IL-4 [2] = biological target: T2, Recombinant Human IL-4 (human, UniProt P05112 25-153); assay: Biacore SPR
T2 sequence (looked up): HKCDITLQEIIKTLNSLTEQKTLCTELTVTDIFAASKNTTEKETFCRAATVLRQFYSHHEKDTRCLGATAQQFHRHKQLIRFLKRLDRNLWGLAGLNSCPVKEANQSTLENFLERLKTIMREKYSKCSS

Recombinant Human IL-13 [3] = biological target: T1, Recombinant Human IL-13; assay: direct bind ELISA
Recombinant Human IL-4 [4] = biological target: T2, Recombinant Human IL-4; assay: direct bind ELISA
Recombinant Human IL-13 [5] = biological target: T1, Recombinant Human IL-13; assay: cell-based or functional assay
Recombinant Human IL-4 [6] = biological target: T2, Recombinant Human IL-4; assay: cell-based or functional assay

T1 sequence (P35225 35-146 limits assumed): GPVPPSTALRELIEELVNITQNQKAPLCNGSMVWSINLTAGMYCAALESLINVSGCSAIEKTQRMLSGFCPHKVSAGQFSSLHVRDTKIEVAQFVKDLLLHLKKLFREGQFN

B1: DVD267 (bispecific antibody, human IgG1, kappa)
heavy: not shown
light: DIQMTQSPSSLSASVGDRVTISCRASQDIRNYLNWYQQKPGKAPKLLIFYTSKLHSGVPSRFSGSGSGTDYTLTISSLQPEDIATYYCQQGLTPPLTFGGGTKVEIKRTVAAPDIVLTQSPSSLSASVGDRVTITCKASQSVDYDGDSYMNWYQQKPGKAPKLLIYAASNLESGIPSRFSGSGSGTDFTFTISSLQPEDIATYYCQQSNEDPPTFGQGTKVEIKRTVAAPSVFIFPPSDEQLKSGTASVVCLLNNFYPREAKVQWKVDNALQSGNSQESVTEQDSKDSTYSLSSTLTLSKADYEKHKVYACEVTHQGLSSPVTKSFNRGEC
notes: outer AB051, inner AB027; vectors V1, V2
B1 was tested, and the Kd (Recombinant Human IL-13 [1]) was 0.0497 nM, the koff (Recombinant Human IL-13 [1]) was 8.69e-05 s⁻¹ and the kon (Recombinant Human IL-13 [1]) was 1.75e+06 M⁻¹ s⁻¹. The Kd (Recombinant Human IL-4 [2]) was 4.86 nM, the koff (Recombinant Human IL-4 [2]) was 0.000343 s⁻¹ and the kon (Recombinant Human IL-4 [2]) was 70600 M⁻¹ s⁻¹. The EC50 (Recombinant Human IL-13 [3]) was 5.89 nM, the EC50 (Recombinant Human IL-4 [4]) was 748 nM and the “IL-13 Neutralization Assay EC50 (A549 cells, hTARC)” value (Recombinant Human IL-13 [5]) was 0.09 nM. For the same binder, the “IL-4 Neutralization Assay EC50 (A549 cells, hTARC)” value (Recombinant Human IL-4 [6]) was 0.09 nM.
